This is an account of results in publication PMC1142404 (Nucleic Acids Research, 2005).

The target of one data set is T1, aCBF5 (Pyrococcus abyssi GE5, UniProt Q9V1A5 1-334).
T1 sequence: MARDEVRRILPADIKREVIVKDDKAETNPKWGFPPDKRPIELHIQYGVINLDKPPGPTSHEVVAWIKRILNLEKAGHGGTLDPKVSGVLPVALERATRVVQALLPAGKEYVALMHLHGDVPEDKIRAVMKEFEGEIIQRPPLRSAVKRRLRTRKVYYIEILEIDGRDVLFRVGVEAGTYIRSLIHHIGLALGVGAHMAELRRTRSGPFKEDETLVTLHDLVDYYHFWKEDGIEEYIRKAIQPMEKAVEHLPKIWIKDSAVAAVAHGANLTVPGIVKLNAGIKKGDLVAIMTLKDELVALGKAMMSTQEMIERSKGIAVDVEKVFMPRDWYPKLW
Description: EMSA. On the technique in general: Mobility shift assays separate free from complexed probe on a gel.

For the next data set, the target named is T2, aCBF5;aNOP10 (Pyrococcus abyssi GE5;Pyrococcus abyssi …, UniProt Q9V1A5;Q9V0E3 1-334;1-60, |).
T2 sequence 1: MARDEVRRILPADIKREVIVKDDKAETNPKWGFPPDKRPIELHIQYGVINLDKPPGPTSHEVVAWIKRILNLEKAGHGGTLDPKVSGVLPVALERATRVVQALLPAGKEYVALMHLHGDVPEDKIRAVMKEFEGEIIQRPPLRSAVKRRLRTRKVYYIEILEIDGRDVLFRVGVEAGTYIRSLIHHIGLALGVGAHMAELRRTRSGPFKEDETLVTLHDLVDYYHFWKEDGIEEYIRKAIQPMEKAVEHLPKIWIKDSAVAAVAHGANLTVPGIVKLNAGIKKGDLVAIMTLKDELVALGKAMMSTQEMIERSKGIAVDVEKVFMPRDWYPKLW
T2 sequence 2: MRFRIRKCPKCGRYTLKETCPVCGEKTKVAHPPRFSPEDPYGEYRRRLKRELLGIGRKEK
In words: EMSA.

Data set [1] concerns the target T3, aCBF5 protein (archaeal CBF5 RNA:Ψ-synthase), Pyrococcus abyssi, cleaved from GST (Pyrococcus abyssi, UniProt Q9V1A5 1-334).
T3 sequence (looked up): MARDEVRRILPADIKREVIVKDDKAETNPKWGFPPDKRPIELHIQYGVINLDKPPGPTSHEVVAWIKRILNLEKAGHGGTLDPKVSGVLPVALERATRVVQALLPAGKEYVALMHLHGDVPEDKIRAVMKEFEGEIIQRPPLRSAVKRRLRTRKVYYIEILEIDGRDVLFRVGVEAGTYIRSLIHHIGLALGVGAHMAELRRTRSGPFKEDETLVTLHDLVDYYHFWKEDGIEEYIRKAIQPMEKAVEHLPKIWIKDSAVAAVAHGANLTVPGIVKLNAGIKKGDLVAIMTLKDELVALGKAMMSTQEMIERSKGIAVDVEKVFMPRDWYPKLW
In words: pull-down.

Data set [2] has as its target T3, aCBF5 protein (archaeal CBF5 …). Description: native gel or EMSA.

B1: Pab91mtGA (structured_RNA)
RNA: GGGUAAUGCCCCUCCCCUCUCACACCUCCGGGAUCAGUCCCCGGAGGGCGGUCGGGGAGGGGACACCU
For B1, the binding result in the data set with aCBF5 and with aCBF5;aNOP10 was “binds” throughout.

B2: GST-aNOP10 fusion protein (natural protein, Pyrococcus abyssi, UniProt Q9V0E3 1-60, looked up)
chain: MRFRIRKCPKCGRYTLKETCPVCGEKTKVAHPPRFSPEDPYGEYRRRLKRELLGIGRKEK
As for B2, the binding result in data set [1] is “binds”.

B3: aNOP10 protein, Pyrococcus abyssi, cleaved from GST (natural protein, UniProt Q9V0E3 1-60, looked up)
chain: MRFRIRKCPKCGRYTLKETCPVCGEKTKVAHPPRFSPEDPYGEYRRRLKRELLGIGRKEK
In the case of B3, in data set [2], the binding result was “binds”.
